Data published in publication PMC11347170, “Staphylococcal exoribonuclease YhaM destabilizes ribosomes by targeting the mRNA of a hibernation factor”.
Several values for one entry are separate records, joined by “and”; a condition that tells them apart may be missing. Identical values can stand only once.

What was measured:
[1] = target: His6-YhaM^WT, recombinant wild-type S. aureus 3'-5' exoribonuclease YhaM (Staphylococcus aureus USA300 JE2); test: SEC; 60 uM YhaM on HiPrep 16/60 Sephacryl S-100 HR, buffer B (40 mM HEPES pH 7.5, 0.5 M KCl, 10% glycerol); size by gel filtration standard
[2] = target: His6-YhaM^WT, recombinant wild-type S. aureus 3'-5' exoribonuclease YhaM (Staphylococcus aureus USA300 JE2); test: mass photometry; TwoMP mass photometer, 30 nM protein, 50 mM Na-Tricine pH 8.0, 100 mM KCl without metal or with 1 mM MnSO4, MgSO4 or CoSO4
[3] = target: YhaM^WT expressed in the S. aureus ΔyhaM mutant from a plasmid under its native promoter (Staphylococcus aureus USA300 JE2); test: cross-linking; in vivo, S. aureus ΔyhaM cells carrying pYhaM^WT (OD600 0.8), 1 mM glutaraldehyde for 1-2 h at room temperature, Western blot with anti-YhaM

stoichiometry N [1]	percent of particles in a hexameric state with Mn(II) [2] [%]	stoichiometry N [2]	Substance	stoichiometry N [3]
6	80	2 and 6	His6-YhaM^WT, recombinant wild-type S. aureus 3'-5' exoribonuclease YhaM (enzyme)	
			YhaM^WT expressed in the S. aureus ΔyhaM mutant from a plasmid under its native promoter (enzyme)	6 and 2 and 4
